Test results taken from publication PMC8096270.

Experiments:
[1] = biological target: Full-length MMTV Gag polypeptide with a C-terminus hexa-histidine tag (Pr77^Gag-His6-tag protein) (mouse mammary tumor virus (MMTV)); assay: dynamic light scattering; Pr77^Gag in storage buffer (50 mM Tris-HCl pH 8.0, 1 M NaCl), 20°C; mean hydrodynamic radius based on number distribution
[2] = system: Pr77Gag (Gag precursor polyprotein) (Mouse mammary tumor virus (strain not stated; HYB-MTV?)); assay: EMSA; details: competition, filter binding: 30 mM Tris pH 7.5, 300 mM NaCl, 5 mM MgCl2, DTT (10 mM in protein diluent), 0.01% Triton X-100, BSA, 37 C 30 min then ice …

Substance	stoichiometry N [1]	Kd [2] [µM]
Full-length MMTV Gag polypeptide with a C-terminus hexa-histidine tag (Pr77^Gag-His6-tag protein) (natural protein)	3	–
WT unspliced gRNA nt 1-712 (SA35)	–	0.48
